Test results: article PMC5925814, “Impact of altered phosphorylation on loss of function of juvenile Parkinsonism–associated genetic variants of the E3 ligase parkin” (The Journal of Biological Chemistry, 2018)
Residue numbers refer to the chain shown, from its start. In names and notes the source's numbering stands. Blank lines part the entries; values can stand above or below the molecule they belong to.

How the values were obtained:
[1] = biological target: T1, GST-tagged Pediculus humanus PINK1 (residues 128–575) (Pediculus humanus) (UniProt E0W1I1)
T1 sequence: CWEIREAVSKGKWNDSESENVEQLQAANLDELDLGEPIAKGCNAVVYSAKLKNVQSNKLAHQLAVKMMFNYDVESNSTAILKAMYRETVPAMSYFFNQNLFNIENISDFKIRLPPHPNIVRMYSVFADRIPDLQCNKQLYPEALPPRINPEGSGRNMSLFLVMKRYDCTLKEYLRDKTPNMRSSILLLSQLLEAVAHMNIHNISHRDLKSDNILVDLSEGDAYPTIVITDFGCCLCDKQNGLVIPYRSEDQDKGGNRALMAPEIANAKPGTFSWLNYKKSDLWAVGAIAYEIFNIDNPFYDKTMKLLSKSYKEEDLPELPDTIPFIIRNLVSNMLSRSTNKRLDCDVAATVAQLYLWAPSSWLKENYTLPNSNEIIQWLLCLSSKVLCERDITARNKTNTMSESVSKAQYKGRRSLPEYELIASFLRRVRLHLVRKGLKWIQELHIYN

[2] = biological target: T1, GST-tagged Pediculus humanus PINK1 (residues 128–575) (Pediculus humanus); remark: listed apart in the source
[3] = biological target: T2, C-terminal portion of ataxin-3 (residues 194–361) containing three UIM regions (UniProt P54252 194-361); assay: NMR titration; unlabelled ataxin^194–361 titrated into 15N-labelled Ubl variants, 1H-15N HSQC chemical shift changes, global fit for a single Kd (apparent); 150 uM Ubl domain (75 uM pUbl^P37L); 25 mM HEPES, 100 mM NaCl, 0.5 mM TCEP, pH 7.0, 25 °C; details: both partners purified
T2 construct: Unlabelled in the NMR titrations; also called ataxin^194–361; tandem UIM region from ataxin-3; source: E. coli BL21(DE3), purified (Ni-NTA, TEV cleavage, second Ni-NTA)
T2 sequence (P54252 194-361): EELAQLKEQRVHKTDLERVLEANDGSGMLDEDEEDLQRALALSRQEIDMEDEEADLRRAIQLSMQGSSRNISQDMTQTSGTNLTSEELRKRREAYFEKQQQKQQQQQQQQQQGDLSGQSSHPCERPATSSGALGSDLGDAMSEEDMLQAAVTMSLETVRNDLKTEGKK

phosphorylation by PINK1 against the WT Ubl domain (data not shown) [1]: 20 fold
Molecule: parkin Ubl domain (1–76) I44A (from UniProt O60260 1-76) (domain or fragment)

rate of Ser-65 phosphorylation by PINK1 (time course, pSer-65 antibody Western blot), against WT full-length parkin [2]: 40%
Molecule: full-length parkin (1–465) G12R (from UniProt O60260 1-465) (enzyme)

B1: parkin Ubl domain (1–76), wild type (domain or fragment, human, UniProt O60260 1-76, looked up)
chain: MIVFVRFNSSHGFPVEVDSDTSIFQLKEVVAKRQGVPADQLRVIFAGKELRNDWTVQNCDLDQQSIVHIVQRPWRK
notes: parkin, human, ubiquitin-like (Ubl) domain, residues 1-76; 15N-labelled for the NMR titrations; also called WT Ubl domain; source: E. coli BL21(DE3), purified (Ni-NTA, Ulp1 cleavage, Superdex75)
Kd [3]: 187 ± 19 µM

B2: parkin Ser-65–phosphorylated Ubl domain (1–76) P37L (domain or fragment, human, UniProt O60260 1-76, looked up)
chain: B1 chain with P37L
modifications: phosphoserine at 65
notes: parkin, human, ubiquitin-like (Ubl) domain, residues 1-76, ARJP substitution P37L, phosphorylated at Ser-65; 15N-labelled; used at 75 uM in the NMR titration; also called pUbl^P37L; pP37L; source: E. coli BL21(DE3), purified (Ni-NTA, Ulp1 cleavage, Superdex75); phosphorylated at Ser-65
Kd [3]: 231 ± 72 µM

B3: parkin Ubl domain (1–76) P37L (domain or fragment, human, UniProt O60260 1-76, looked up)
chain: B1 chain with P37L
notes: parkin, human, ubiquitin-like (Ubl) domain, residues 1-76, ARJP substitution P37L; 15N-labelled for the NMR titrations; Disease-associated (ARJP) substitution; also called Ubl^P37L; source: E. coli BL21(DE3), purified (Ni-NTA, Ulp1 cleavage, Superdex75)
Kd [3]: 61 ± 2 µM

B4: parkin Ubl domain (1–76) S65E, phosphomimetic (domain or fragment, human, UniProt O60260 1-76, looked up)
chain: B1 chain with S65E
notes: parkin, human, ubiquitin-like (Ubl) domain, residues 1-76, S65E; 15N-labelled for the NMR titrations; also called Ubl^S65E; source: E. coli BL21(DE3), purified (Ni-NTA, Ulp1 cleavage, Superdex75)
Kd [3]: 227 ± 26 µM

B5: parkin Ser-65–phosphorylated Ubl domain (1–76) (domain or fragment, human, UniProt O60260 1-76, looked up)
chain: B1 chain
modifications: phosphoserine at 65
notes: parkin, human, ubiquitin-like (Ubl) domain, residues 1-76, phosphorylated at Ser-65; 15N-labelled for the NMR titrations; the preparative phosphorylation is not described; also called pUbl; pSer-65 Ubl; source: E. coli BL21(DE3), purified (Ni-NTA, Ulp1 cleavage, Superdex75); phosphorylated at Ser-65
Kd [3]: 652 ± 175 µM
